# Measurements taken from PMC6548343 (Journal of Molecular Cell Biology, 2018).
# Where “and” joins values, the source holds several entries; their conditions need not be identical. Equal entries are not always repeated.
# B1: Rvb1/Rvb2 (complex, S. cerevisiae)
# chain 1: MVAISEVKENPGVNSSNSGAVTRTAAHTHIKGLGLDESGVAKRVEGGFVGQIEAREACGVIVDLIKAKKMSGRAILLAGGPSTGKTALALAISQELGPKVPFCPLVGSELYSVEVKKTETLMENFRRAIGLRIKETKEVYEGEVTELTPEDAENPLGGYGKTISHVIVGLKSAKGTKTLRLDPTIYESIQREKVSIGDVIYIEANTGAVKRVGRSDAYATEFDLETEEYVPLPKGEVHKKKEIVQDVTLHDLDVANARPQGGQDVISMMGQLLKPKKTEITEKLRQEVNKVVAKYIDQGVAELIPGVLFIDEVNMLDIEIFTYLNKALESNIAPVVVLASNRGMTTVRGTEDVISPHGVPPDLIDRLLIVRTLPYDKDEIRTIIERRATVERLQVESSALDLLATMGTETSLRYALQLLAPCGILAQTSNRKEIVVNDVNEAKLLFLDAKRSTKILETSANYL
# chain 2: MSIQTSDPNETSDLKSLSLIAAHSHITGLGLDENLQPRPTSEGMVGQLQARRAAGVILKMVQNGTIAGRAVLVAGPPSTGKTALAMGVSQSLGKDVPFTAIAGSEIFSLELSKTEALTQAFRKSIGIKIKEETELIEGEVVEIQIDRSITGGHKQGKLTIKTTDMETIYELGNKMIDGLTKEKVLAGDVISIDKASGKITKLGRSFARSRDYDAMGADTRFVQCPEGELQKRKTVVHTVSLHEIDVINSRTQGFLALFTGDTGEIRSEVRDQINTKVAEWKEEGKAEIVPGVLFIDEVHMLDIECFSFINRALEDEFAPIVMMATNRGVSKTRGTNYKSPHGLPLDLLDRSIIITTKSYNEQEIKTILSIRAQEEEVELSSDALDLLTKTGVETSLRYSSNLISVAQQIAMKRKNNTVEVEDVKRAYLLFLDSARSVKYVQENESQYIDDQGNVQISIAKSADPDAMDTTE
# notes: Rvb1, AAA+ ATPase subunit, S. cerevisiae; Rvb2, AAA+ ATPase subunit, S. cerevisiae; Seen as a hexameric ring in INO80 and as free hexamers and dodecamers; The fitted models PDB 2XSZ and 5OAF are of the human proteins; also called Rvb1/Rvb2 hexameric ring; Rvb1-Rvb2 ring; source: endogenous, S. cerevisiae, co-purified with tagged Ino80 (FLAG resin, Mono Q)
# Target: the molecule itself
# Assay: EM classification and 3D reconstruction; INO80 sub-complexes and separated Rvb1/Rvb2 rings in the Mono Q fraction of the Ino80-2×FLAG purification
protein,measurement,value
B1,stoichiometry N,12 and 6
